# Biological target: free tubulin heterodimers (human (endogenous in HEK293T and HeLa)) (UniProt P68363)
# Chain of UniProt P68363 (P68363 whole entry, chain 1 of 2): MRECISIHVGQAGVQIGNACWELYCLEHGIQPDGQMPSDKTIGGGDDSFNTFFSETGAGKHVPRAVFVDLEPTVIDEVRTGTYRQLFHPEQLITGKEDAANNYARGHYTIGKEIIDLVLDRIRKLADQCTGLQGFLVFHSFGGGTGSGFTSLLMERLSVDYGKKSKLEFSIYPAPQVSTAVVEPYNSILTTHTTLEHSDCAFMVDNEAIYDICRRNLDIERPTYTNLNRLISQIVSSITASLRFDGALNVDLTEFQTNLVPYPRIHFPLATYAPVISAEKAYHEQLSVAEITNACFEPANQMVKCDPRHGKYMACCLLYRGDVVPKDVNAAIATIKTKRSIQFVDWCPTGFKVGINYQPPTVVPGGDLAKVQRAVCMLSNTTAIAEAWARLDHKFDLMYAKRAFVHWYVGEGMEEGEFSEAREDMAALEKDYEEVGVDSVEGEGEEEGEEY
# Chain of UniProt P68363 (P07437 whole entry, chain 2 of 2, further chain): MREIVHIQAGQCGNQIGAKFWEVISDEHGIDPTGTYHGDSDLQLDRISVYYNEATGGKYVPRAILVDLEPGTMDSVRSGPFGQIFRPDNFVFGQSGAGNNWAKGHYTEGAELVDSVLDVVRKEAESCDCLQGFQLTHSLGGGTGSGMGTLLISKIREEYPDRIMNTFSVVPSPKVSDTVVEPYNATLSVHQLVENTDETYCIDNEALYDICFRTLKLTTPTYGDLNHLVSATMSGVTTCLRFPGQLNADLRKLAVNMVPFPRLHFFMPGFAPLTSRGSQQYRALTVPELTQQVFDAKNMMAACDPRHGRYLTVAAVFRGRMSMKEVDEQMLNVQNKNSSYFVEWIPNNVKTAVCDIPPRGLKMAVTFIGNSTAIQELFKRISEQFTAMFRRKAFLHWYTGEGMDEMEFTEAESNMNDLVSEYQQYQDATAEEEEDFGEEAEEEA
row,Binder,"Relative FRET increase (RFP/YFP ratio of the intramolecular sensor) after 10 µM paclitaxel for 1 h, HEK293T cells"
1,ROPY (RFP-OP18-YFP) FRET sensor: stathmin/oncoprotein18 (OP18) with sYFP2 donor and mScarlet-I R125I acceptor (natural protein) MASSDIQVKELEKRASGQAFELILSPRSKESVPDFPLSPPKKKDLSLEEIQKKLEAAEERRKSHEAEVLKQLAEKREHEKEVLQKAIEENNNFSKMAEEKLTHKMEANKENREAQMAAKLERLREKDKHVEEVRKNKESKDPADETEAD,1.11
2,"ROPY-4A, phospho-blocking variant of ROPY with four serines mutated into alanines (natural protein) MASSDIQVKELEKRAAGQAFELILAPRSKESVPDFPLAPPKKKDLSLEEIQKKLEAAEERRKAHEAEVLKQLAEKREHEKEVLQKAIEENNNFSKMAEEKLTHKMEANKENREAQMAAKLERLREKDKHVEEVRKNKESKDPADETEAD",1.15
3,"ROPY-4E, phospho-mimetic variant of ROPY with four serines mutated into glutamic acids (natural protein) MASSDIQVKELEKRAEGQAFELILEPRSKESVPDFPLEPPKKKDLSLEEIQKKLEAAEERRKEHEAEVLKQLAEKREHEKEVLQKAIEENNNFSKMAEEKLTHKMEANKENREAQMAAKLERLREKDKHVEEVRKNKESKDPADETEAD",1.01

# Source: article PMC7138840
